Results from US20040062769A1 (US Dept. of Health and Human Services, published 2004).

Molecular target: T1, FCR3.varCSA protein (Plasmodium falciparum (FCR3 strain), surface iodinated (125I) in the thrombomodulin bead capture)
T1 construct: also called FCR3-CSA var
Assay: cytoadhesion of FCR3-CSA PRBCs to CHO-745 cells expressing CD36 (Table 1)

B1: human CD36 expressed on CHO-745 cells (receptor)
chain: GCDRNCGLIAGAVIGAVLAVFGGILMPVGDLLIQKTIKKQVVLEEGTIAFKNWVKTGTEVYRQFWIFDVQNPQEVMMNSSNIQVKQRGPYTYRVRFLAKENVTQDAEDNTVSFLQPNGAIFEPSLSVGTEADNFTVLNLAVAAASHIYQNQFVQMILNSLINKSKSSMFQVRTLRELLWGYRDPFLSLVPYPVTTTVGLFYPYNNTADGVYKVFNGKDNISKVAIIDTYKGKRNLSYWESHCDMINGTDAASFPPFVEKSQVLQFFSSDICRSIYAVFESDVNLKGIPVYRFVLPSKAFASPVENPDNYCFCTEKIISKNCTSYGVLDISKCKEGRPVYISLPHFLYASPDVSEPIDGLNPNEEEHRTYLDIEPITGFTLQFAKRLQVNLLVKPSEKIQVLKNLKRNYIVPILWLNETGTIGDEKANMFRSQVTGKINLLGLIEMILLSVGVVMFVAFMISYCACRSKTIK
notes: whole, on cells; also called CHO^CD36
B1: no binding.
